Assay results: the nanobody polyreactivity screen of Harvey et al. (2022)

Test: yeast display, Sf9 membrane polyspecificity reagent, FACS + sequencing; frameworks hold sequencing errors
Procedure, shortened: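 Genes from sorted yeast were amplified by colony PCR, read by MiSeq 2 × 250 sequencing and filtered on CDR length. These cells carried a synthetic nanobody library in Saccharomyces cerevisiae BJ5465 and were sorted by FACS into low and high (top ~1%) gates on anti-HA and streptavidin fluorescence. Polyreactivity is labelled according to the gate of origin.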

Sequence | polyreactivity (PSR sort gate)
QVQLVESGGGLVQAGGSLRLSCAASGSIFARYTMGWYRQAPGKERELVAAISSSGTSTYYADSVKGRFTISRDNAKNTVYLQMNSLKPEDTAVYYCAADWYYHYGYWGQGTQVTVSS | high polyreactivity
QVQLVESGGGLVQAGGSLRLSCAASGSIFARYVMGWYRQAPGKERELVAAISRGGRTKYADSVKGRFTISRDNAKNTVYLQMNSLKPEDTAVYYCAAEPFNGRTDLDYWGQGTQVTVSS | high polyreactivity
QVQLVESGGGLVQAGGSLRLSCAASGSIFASNAMGWYRQAPGKEREFVAAITWRTDRTYYADSVKGRFTISRDNAKNTVYLQMNSLKPEDNAVYYCAADTWFDRFYYWGQGTQVTVSS | high polyreactivity
QVQLVESGGGLVQAGGSLRLSCAASGSIFASNAMGWYRQAPGKERELVAAINSGDSTNYADSVKGRFTISRDNAKNTVYFQMNSLKPEDTAVYYCARGLEERYDYWGQGTQVTVSS | low polyreactivity
QVQLVESGGGLVQAGGSLRLSCAASGSIFASNAMGWYRQAPGKERELVAAINSGGNTYEDSVKGRFTISRDNAKNTVYLQMNSLKPEDTAVYYCSVVWNWWSGLSPGYPDFDYWGQGTQVTVSS | low polyreactivity
QVQLVESGGGLVQAGGSLRLSCAASGSIFASNTMGWYRQAPGKERELVAGITKIGSSTYYADSVKGRFTISRDNAKNTVYLQMNSLKPEDTAVYYCAAGAWRGPYSGYYYWGQGTQVTVST | low polyreactivity
QVQLVESGGGLVQAGGSLRLSCAASGSIFASYAMGWYRQPPGKERELVAAISIGGTTNYADSVKGRFTISRDNAKNTVYLQMYSLKPEDTAVYYCNAGRWLFNYYYWIYDVRYDYWGQGTQVTVSS | high polyreactivity
QVQLVESGGGLVQAGGSLRLSCAASGSIFASYVMGWSRQAPGKERELVAAISYSDGRTYYADSVKGRFTISRDNAKNTVYLQMNSLKPEDTAVYYCAADRHARLVIGYRRLRYEYWGQGTQVTVSS | low polyreactivity
QVQLVESGGGLVQAGGSLRLSCAASGSIFATNAMGCYRQAPGKERELVAAISRSGASTYYADSVKGRFTISRDNAKHTVYLQMNRLKPEDTAVYYCNKVLYRDAYQSYGFDYWGQGTQVTVSS | high polyreactivity
QVQLVESGGGLVQAGGSLRLSCAASGSIFAVYAMGWYRQAPGKERELVAVITRSGGSTYYADSVKGRFTISRDNAKNTFYLQMNSLKPEDTAVYYCAARTGYGYTRYEYWGQGTQVTVSS | high polyreactivity
QVQLVESGGGLVQAGGSLRLSCAASGSIFAVYAMRCYRQAPAKARELVATITGIDTGTYYADSVKGRCTISRDIAKNTVYLHMNILKPEDTAVYYCAAVCRYRHLRFYYWGQGTQGTVSS | high polyreactivity
QVQLVESGGGLVQAGGSLRLSCAASGSIFAWYAMGWYRPAPGKERELVATITWSGGSTYYADSVKGRVTISRDNAKNTVYLQMNSLKPEDTAVYYCAAEVLGIWYDLWDQGDYGGQGTQVTVSS | low polyreactivity
QVQLVESGGGLVQAGGSLRLSCAASGSIFAWYGMGWYRQAPGKERELVAAISTAGSTNYADSVKGRFTISRDNAKNTVYLQMNSLKPEDTAVYDCAKKSSWYYPERFDYWGQGTQVTVSS | low polyreactivity
QVQLVESGGGLVQAGGSLRLSCAASGSIFAYNAMGWYRQAPGKEREFVAVITRSDDSTYADSVNGRFTISRDNAKNTVSLQMNSLKPEDTAVYYCAALQFVIDGGYRGDYWGQGTQVTVSS | low polyreactivity
QVQLVESGGGLVQAGGSLRLSCAASGSIFAYNAMGWYRQAPGKERELVAAISVGGGRTYYADSVKGRFTISRDNAKNTVYLQMNSLKPEDTAVYYCAASSTAKRYYWGQGTQVTVSS | high polyreactivity
QVQLVESGGGLVQAGGSLRLSCAASGSIFAYYAMGWYRQAPGKERELVAAITRGGRKYYADSVKGRFTISRDNAKNTVYLQMNILKPEYTAVYYCNARNVYFVSPNYDYWGQCTQVTVSS | high polyreactivity
QVQLVESGGGLVQAGGSLRLSCAASGSIFAYYAMGWYRQAPGKERELVAAITWSGGITYYADSVKGRFTISRDNAKNTVYLQMNSLKPEDTAVYYCNADEWPPYEYEYWGQGTQVTVSS | low polyreactivity
QVQLVESGGGLVQAGGSLRLSCAASGSIFCQYVMGWYRQAPGKERVLVAAISWSGPRTYYADSVKGRFTISRDNAKNTVDLQMNSLKPEDTAVYYCAARRLYAGHQYDYWGQGTQVTVSS | high polyreactivity
QVQLVESGGGLVQAGGSLRLSCAASGSIFDAYAMGWYRQAPGKERELVAGITSGGSTNYADSVKGRFTISRDNAKNSVYLQMNSLKPEDTAVYYCAAQCDYANIYLIFNYWGQGTQVTVSS | low polyreactivity
QVQLVESGGGLVQAGGSLRLSCAASGSIFDAYAMGWYRQSPGKERELVAAITTGGGSTYYADSVKGRFTISRDNAKNTVYLQMNSLKPEDTAVYYCAPDYGKYKGYYWGQGTQVTVSS | low polyreactivity
QVQLVESGGGLVQAGGSLRLSCAASGSIFDDFAMGWYRQAPGKERELVAAISWSGGRTYYADSVKGRFTISRDNAKNTVYLHMNSLKPDDTAVYYCAATTGVRSRRYYYWGQGTQVTVSS | low polyreactivity
QVQLVESGGGLVQAGGSLRLSCAASGSIFDDNAMGWYRQAPGKERELVAGISRGGSTNYADSVKGRFTISRDNANNTVYLQMNSLKPEDTAVYYCNKRYKPSWTTYDYWGQGTQVTVSS | low polyreactivity

Sequence | polyreactivity (PSR sort gate)
QVQLVESGGGLVQAGGSLRLSCAASGSIFDDNAMGWYRQAPGKEREMVAAISANDGSTYYADSVKGRFTISRDNAKNTVYLQRNSLNPEDTAVYYCAADVKDYAAQMDSWGQGTQVTVSS | low polyreactivity
QVQLVESGGGLVQAGGSLRLSCAASGSIFDDYAMGWYRQAPGKEREKVAAISWSGGRTYYADSVKGRFTISRDTAKNTVYLQMNSLKPEDTAVYYCAATTGVRSRRYYYWGQGTQVTVSS | high polyreactivity
QVQLVESGGGLVQAGGSLRLSCAASGSIFDDYAMGWYRQAPGKERELVAAISSSGTSTYYADSVKGRFTISRDNAKNTVYLQMNSLKPEDTAGYYCAARSAILKSGYLMDYWGQGTQVTVSS | low polyreactivity
QVQLVESGGGLVQAGGSLRLSCAASGSIFDDYAMGWYRQAPGKERELVAAISWSGGSTYYADSVKGRFTISRDNAKNTVYLQINSLKPEDTAVYYCAKESGWVGAIHYDYWGQGTQVTVSS | low polyreactivity
QVQLVESGGGLVQAGGSLRLSCAASGSIFDDYAMGWYRQAPGKESELVAAITSGASTNYADSVKGRFTISRDNAKNTFSLQMNSLKPEDTAVYYCAADHDYFVNTDKFDDYWGQGTQVTVSS | low polyreactivity
QVQLVESGGGLVQAGGSLRLSCAASGSIFDDYAMGWYRQATGKERQLVAAISSSGTSTYYADSVKGRFTISRDNAKNTVYLQMNSLKPEDTAVYYCAARSAILKSGYLMDYWGQGTQVTVSS | low polyreactivity
QVQLVESGGGLVQAGGSLRLSCAASGSIFDFYAMGWDRQAPGKERELVAAISGSGGSTYYADSVKGRFTISRDNAKNTVYLQMNSLKPEDTAVYYCNAATYRTRHSNNGYWGQGTQVTVSS | low polyreactivity
QVQLVESGGGLVQAGGSLRLSCAASGSIFDFYAMGWYRQAPGKERELVAAIDDIDDSTYYADSVKGRFTISRDNAKNTVYLQMNCLNPEDTAVYYCAAELRPGYRSSYGLIYDYWGQGTQVTVSS | low polyreactivity
QVQLVESGGGLVQAGGSLRLSCAASGSIFDFYAMGWYRQAPGKERELVAAITWSGDTTYYADSVKGRFTISRDNAKNTVYLQMNSLKPEDTAVYYCAAEGWYWWYGRDYYWGQGTQVTVSS | high polyreactivity
QVQLVESGGGLVQAGGSLRLSCAASGSIFDFYGMGWYRQAPGKERELVATITGTGGGTYYADSVKGRFTISRDNAKNTVYLQMNSLKPEDTAVYYCAADYPYGYWRGLFYYWGHGTQVTVSS | low polyreactivity
QVQLVESGGGLVQAGGSLRLSCAASGSIFDGNAMGWYRQAPGKERELVASISDSGGSTYYADSVKGRFTISRDNAKNTVYLQMNSLKPEDTAVYYCAKVFVRFYDYYINYWGQGTQVTVSS | low polyreactivity
QVQLVESGGGLVQAGGSLRLSCAASGSIFDGNTMGWSRPAPGKERELVATIRWRGGRTYYADSVKGRFTISRDNAKNTVSLQMNSLKPEDTAVYYCNARWGYSRHRLMGYWGQGTQVTVSS | high polyreactivity
QVQLVESGGGLVQAGGSLRLSCAASGSIFDGYAMGWYIQAPGKDRELVAAISGSGGITYYADSVKGRFTISRDNAKNTVYLPMNSLKPEDTAVYYCAADYSWYAGYGYWGQGTQVTVSS | low polyreactivity
QVQLVESGGGLVQAGGSLRLSCAASGSIFDGYAMRWYRQAPGKERELVAAIRWGDGITYYADSVKGRFTISRDIAKNTVYLLMNSLKPVDTAVYYCAAVQHGHEPRVQDSYDYWGQGTQVTVSS | low polyreactivity
QVQLVESGGGLVQAGGSLRLSCAASGSIFDHTNAMGWYRQAPGKERELVAAITSGSSTNYADSVKGRFTISRDNAKNTVYLQMNSLKPEDTAVYYCNADRFHSGIFDYWGQGTQVTVSS | low polyreactivity
QVQLVESGGGLVQAGGSLRLSCAASGSIFDHYAMGWYRQAPGKERELVAAITAICDSTYYADSVKGRFTISRDNAKNTVYLEKNSLKAEDTAVYYCAVTYGGSDGGDYWGQGTQGTVSS | low polyreactivity
QVQLVESGGGLVQAGGSLRLSCAASGSIFDINAMGWYRQAPGKEREFVAAISWSGGTTYYADSVKGRFTISRDNAKNPVYLQMNSLKPEDTAVYYCAALSYVKRRQSYGYWGLGTQVTVSS | high polyreactivity
QVQLVESGGGLVQAGGSLRLSCAASGSIFDINAMGWYRQAPGKERELVAAISYGGGSTSYADSVKGRFTISRDNAKNTVYLQMNSLKPEDTAVYYCAAGYTQSPRDDSWGQGTQVTVSS | low polyreactivity
QVQLVESGGGLVQAGGSLRLSCAASGSIFDIYAMGGYRQAPGKERELVAGITRDDGSTYYADSVKGRFTISRDNAKNTVYLQMNSLNPEDTAVYYCNRPGDYPDYVPGYYYWGQGTQVTVSS | low polyreactivity
QVQLVESGGGLVQAGGSLRLSCAASGSIFDIYAMGWYRQAPGKERELVADITISGGSTYYADSVKGRFTISRDNAKNTVYLQMNSLKPEDTAVYYCKKAYLGYRYDLYDYWGQGTQVTVSS | low polyreactivity
QVQLVESGGGLVQAGGSLRLSCAASGSIFDIYAMGWYRQAPGKERELVASIRRRGGSTYYADSVKGRFTISRDNAKNTVYLQMNSLKPEDTAVYYCNARRVWLRTTGTNWPERGYWGQGTQVTVSS | high polyreactivity
